What is called Kd is the concentration at which binding is half-saturated.

Two molecules from US20230280343A1 can be followed below.

Test [1] deals with p300 (UniProt Q09472). Description: ELISA; ratio of Kd against native HIF1α. Background: ELISA stands for enzyme-linked immunosorbent assay.
Test [2] deals with p300 (UniProt Q09472). Description: ELISA, total binding fit, average of three independent trials (FIG. 21).

p300, sequence (Q09472 323-423 limits assumed): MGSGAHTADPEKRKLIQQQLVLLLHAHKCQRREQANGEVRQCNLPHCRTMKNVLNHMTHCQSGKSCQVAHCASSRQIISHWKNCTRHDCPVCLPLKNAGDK

B1: HIF1α-MAP-1 (H-MAP-1) (designed binder)
chain: MRGSHHHHHHGSACELAATATATATATATAACGDLAPQMLRELQETNAALQDVRELLRQQVKEITFLKNTLLEIWKAAKEAAKEAAAKIEEQAKTFLDKFNGEELLRALDQVN
Turning to B1, the fold improvement over native HIF1α in test [1] was 47 fold. This molecule also showed a Kd in test [2] of 0.00808 nM.

B2: HIF1α-MAP-2 (H-MAP-2) (designed binder)
chain: MRGSPKKKRKVGGGGSHHHHHHHHGSACELAATATATATATATAACGDLAPQMLRELQETNAALQDVRELLRQQVKEITFLKNTLLEIWKAAKEAAKEAAAKIEEQAKTFLDKFNGEELLRALDQVN
For B2, the Kd in test [2] worked out at 0.0382 nM.
